Experimental data taken from patent US20050222029A1 (MYRIAD GENETICS, published 2005).

How the values were obtained:
Experiment in all cases: yeast two-hybrid
[1] = biological target: T1, GTPase-activiating protein 1 1413-1567 (human, UniProt P46940 1413-1567)
T1 construct: prey (Gal4 AD-HA fusion); also called IQGAP1; IQGAP
T1 sequence (looked up): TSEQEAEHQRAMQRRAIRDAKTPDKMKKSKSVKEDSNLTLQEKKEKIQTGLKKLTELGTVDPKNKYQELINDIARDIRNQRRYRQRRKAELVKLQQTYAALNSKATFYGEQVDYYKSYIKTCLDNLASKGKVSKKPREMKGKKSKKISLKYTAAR

Keratin 5 282-448 = biological target: T2, Keratin 5 282-448 (human, UniProt P13647 282-448)
T2 construct: prey (Gal4 AD-HA fusion)
T2 sequence (looked up): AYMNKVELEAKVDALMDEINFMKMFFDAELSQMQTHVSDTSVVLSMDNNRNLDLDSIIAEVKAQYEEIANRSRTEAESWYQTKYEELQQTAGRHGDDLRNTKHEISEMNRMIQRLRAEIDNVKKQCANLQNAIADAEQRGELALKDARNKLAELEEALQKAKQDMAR

Keratin 8 147-406 = biological target: T3, Keratin 8 147-406 (human, UniProt P05787 147-406)
T3 construct: prey (Gal4 AD-HA fusion)
T3 sequence (looked up): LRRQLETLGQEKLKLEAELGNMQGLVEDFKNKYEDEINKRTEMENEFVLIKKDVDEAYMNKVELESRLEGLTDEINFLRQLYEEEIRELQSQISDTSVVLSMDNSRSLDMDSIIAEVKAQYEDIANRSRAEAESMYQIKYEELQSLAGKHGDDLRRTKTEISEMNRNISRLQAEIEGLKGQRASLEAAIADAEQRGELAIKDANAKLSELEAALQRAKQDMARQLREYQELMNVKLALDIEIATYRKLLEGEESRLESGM

[2] = biological target: T4, Mitotic spindle coiled-coil related protein 723-1012 (human, UniProt Q96R06 723-1012)
T4 construct: prey (Gal4 AD-HA fusion)
T4 sequence (looked up): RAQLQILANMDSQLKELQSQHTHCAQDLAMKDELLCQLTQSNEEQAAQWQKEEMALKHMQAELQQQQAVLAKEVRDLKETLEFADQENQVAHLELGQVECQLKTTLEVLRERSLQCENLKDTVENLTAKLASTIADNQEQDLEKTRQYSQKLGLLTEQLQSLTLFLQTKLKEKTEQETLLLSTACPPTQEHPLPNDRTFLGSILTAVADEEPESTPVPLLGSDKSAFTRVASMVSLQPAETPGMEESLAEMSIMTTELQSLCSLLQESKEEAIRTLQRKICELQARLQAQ

[3] = biological target: T5, Mitotic spindle coiled-coil related protein 668-895 (human, UniProt Q96R06 668-895)
T5 construct: prey (Gal4 AD-HA fusion)
T5 sequence (looked up): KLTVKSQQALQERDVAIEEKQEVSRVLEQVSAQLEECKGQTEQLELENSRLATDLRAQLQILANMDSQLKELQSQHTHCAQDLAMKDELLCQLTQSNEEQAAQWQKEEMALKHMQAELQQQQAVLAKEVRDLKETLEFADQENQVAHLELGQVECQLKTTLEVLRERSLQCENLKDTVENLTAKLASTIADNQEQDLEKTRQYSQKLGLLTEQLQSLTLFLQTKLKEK

[4] = biological target: T6, GTPase-activiating protein 1 1308-1606 (human, UniProt P46940 1308-1606)
T6 construct: prey (Gal4 AD-HA fusion); also called IQGAP1; IQGAP
T6 sequence (looked up): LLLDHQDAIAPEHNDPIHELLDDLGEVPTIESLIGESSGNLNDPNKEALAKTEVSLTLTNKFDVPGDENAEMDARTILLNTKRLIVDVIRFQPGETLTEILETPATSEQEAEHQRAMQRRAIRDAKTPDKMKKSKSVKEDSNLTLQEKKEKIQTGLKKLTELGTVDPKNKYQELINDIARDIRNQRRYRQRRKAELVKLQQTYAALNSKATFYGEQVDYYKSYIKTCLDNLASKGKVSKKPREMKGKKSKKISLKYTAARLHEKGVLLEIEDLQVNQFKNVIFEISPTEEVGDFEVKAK

Intersection 1 210-633 = biological target: T7, Intersection 1 210-633 (human, UniProt Q15811 210-633)
T7 construct: prey (Gal4 AD-HA fusion); also called Intersectin 1; ITSN1
T7 sequence (looked up): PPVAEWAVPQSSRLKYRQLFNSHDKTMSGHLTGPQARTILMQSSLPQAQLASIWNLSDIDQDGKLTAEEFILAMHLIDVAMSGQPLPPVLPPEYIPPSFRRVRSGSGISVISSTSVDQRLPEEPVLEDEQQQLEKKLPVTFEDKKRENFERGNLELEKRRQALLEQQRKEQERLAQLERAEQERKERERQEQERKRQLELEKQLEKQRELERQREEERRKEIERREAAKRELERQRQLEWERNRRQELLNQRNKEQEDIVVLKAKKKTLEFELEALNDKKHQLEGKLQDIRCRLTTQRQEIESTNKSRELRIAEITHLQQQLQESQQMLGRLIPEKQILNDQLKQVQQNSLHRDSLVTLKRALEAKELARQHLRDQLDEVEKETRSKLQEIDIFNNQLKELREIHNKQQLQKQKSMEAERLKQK

[5] = biological target: T8, Serum deprivation response 75-258 (human, UniProt O95810 75-258)
T8 construct: prey (Gal4 AD-HA fusion)
T8 sequence (looked up): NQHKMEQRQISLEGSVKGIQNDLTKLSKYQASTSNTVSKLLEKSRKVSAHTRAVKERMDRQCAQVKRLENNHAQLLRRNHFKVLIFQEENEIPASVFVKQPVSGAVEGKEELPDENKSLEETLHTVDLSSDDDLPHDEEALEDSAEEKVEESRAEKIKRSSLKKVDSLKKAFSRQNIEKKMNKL

Hook2 protein 290-555 = biological target: T9, Hook2 protein 290-555 (human, UniProt Q96ED9 290-555)
T9 construct: prey (Gal4 AD-HA fusion)
T9 sequence (looked up): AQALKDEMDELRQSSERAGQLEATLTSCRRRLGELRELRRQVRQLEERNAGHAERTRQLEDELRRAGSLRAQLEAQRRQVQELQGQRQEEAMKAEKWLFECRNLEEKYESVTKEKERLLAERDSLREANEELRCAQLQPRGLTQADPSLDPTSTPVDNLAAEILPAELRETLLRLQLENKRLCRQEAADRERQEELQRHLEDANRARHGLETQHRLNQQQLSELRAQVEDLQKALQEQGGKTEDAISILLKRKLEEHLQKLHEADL

binding result [1]: binds
binding result (Keratin 5 282-448): binds
binding result (Keratin 8 147-406): binds
binding result [2]: binds
binding result [3]: binds
binding result [4]: binds
binding result (Intersection 1 210-633): binds
binding result [5]: binds
binding result (Hook2 protein 290-555): binds
B1: Tumor Suppressor (TSG101) 240-391 (other, human, UniProt Q99816 240-390, looked up)
chain: WRMKEEMDRAQAELNALKRTEEDLKKGHQKLEEMVTRLDQEVAEVDKNIELLKKKDEELSSALEKMENQSENNDIDEVIIPTAPLYKQILNLYAEENAIEDTIFYLGEALRRGVIDLDVFLKHVRLLSRKQFQLRALMQKARKTAGLSDLY
notes: range 240-391; bait (Gal4 DBD fusion); also called TSG101 240-390
